T1: human FcγRIIc (CD32C) (human, UniProt P31995)
T1 chain: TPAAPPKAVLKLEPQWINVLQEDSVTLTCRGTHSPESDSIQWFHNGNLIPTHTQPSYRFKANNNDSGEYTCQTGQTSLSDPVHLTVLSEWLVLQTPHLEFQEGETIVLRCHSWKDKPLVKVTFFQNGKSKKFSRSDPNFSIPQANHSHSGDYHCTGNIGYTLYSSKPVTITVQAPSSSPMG

T2: murine FcγRI (mouse, UniProt P26151)
T2 chain: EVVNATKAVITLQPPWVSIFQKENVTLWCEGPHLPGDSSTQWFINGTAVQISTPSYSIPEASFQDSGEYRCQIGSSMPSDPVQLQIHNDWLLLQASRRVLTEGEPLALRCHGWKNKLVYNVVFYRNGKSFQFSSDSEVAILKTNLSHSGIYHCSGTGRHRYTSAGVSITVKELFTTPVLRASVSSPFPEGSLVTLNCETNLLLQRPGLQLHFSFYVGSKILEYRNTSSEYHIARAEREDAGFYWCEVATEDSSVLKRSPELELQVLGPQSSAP

T3: human FcγRI (CD64) (human, UniProt P12314)
T3 chain: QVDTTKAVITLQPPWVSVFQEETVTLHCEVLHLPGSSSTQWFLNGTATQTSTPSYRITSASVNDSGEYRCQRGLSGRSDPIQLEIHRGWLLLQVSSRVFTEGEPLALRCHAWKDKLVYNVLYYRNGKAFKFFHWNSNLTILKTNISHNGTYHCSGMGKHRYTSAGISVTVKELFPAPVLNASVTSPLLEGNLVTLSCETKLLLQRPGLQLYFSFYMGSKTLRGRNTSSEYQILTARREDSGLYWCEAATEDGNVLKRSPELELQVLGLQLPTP

T4: murine FcγRIII (mouse, UniProt P08508)
T4 chain: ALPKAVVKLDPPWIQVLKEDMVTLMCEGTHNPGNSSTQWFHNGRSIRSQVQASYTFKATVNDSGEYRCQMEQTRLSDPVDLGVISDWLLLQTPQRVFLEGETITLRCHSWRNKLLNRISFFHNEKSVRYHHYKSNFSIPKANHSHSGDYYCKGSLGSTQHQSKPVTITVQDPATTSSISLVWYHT

T5: cynomolgus FcγRIIa (CD32A) (cynomolgus)
T5 chain: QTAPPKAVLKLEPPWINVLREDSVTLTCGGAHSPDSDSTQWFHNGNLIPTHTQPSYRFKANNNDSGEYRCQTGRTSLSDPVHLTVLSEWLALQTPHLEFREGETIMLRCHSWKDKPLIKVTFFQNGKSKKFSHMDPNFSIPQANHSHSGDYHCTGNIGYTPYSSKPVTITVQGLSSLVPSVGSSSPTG

T6: human FcγRIIa (CD32A) (human, UniProt P12318)
T6 chain: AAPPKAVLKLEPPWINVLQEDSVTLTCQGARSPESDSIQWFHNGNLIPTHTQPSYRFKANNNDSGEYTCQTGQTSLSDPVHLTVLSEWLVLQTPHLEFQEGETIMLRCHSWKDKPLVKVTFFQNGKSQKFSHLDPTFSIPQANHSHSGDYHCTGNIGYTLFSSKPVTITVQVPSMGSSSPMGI

T7: murine FcγRIIb (mouse, UniProt P08101)
T7 chain: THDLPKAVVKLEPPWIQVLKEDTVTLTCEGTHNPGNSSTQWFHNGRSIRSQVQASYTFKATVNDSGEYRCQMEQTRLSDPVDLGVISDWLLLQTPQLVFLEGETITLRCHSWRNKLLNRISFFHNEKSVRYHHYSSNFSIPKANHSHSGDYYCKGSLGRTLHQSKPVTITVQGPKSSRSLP

T8: murine FcRn (mouse, UniProt Q61559)
T8 chain 1: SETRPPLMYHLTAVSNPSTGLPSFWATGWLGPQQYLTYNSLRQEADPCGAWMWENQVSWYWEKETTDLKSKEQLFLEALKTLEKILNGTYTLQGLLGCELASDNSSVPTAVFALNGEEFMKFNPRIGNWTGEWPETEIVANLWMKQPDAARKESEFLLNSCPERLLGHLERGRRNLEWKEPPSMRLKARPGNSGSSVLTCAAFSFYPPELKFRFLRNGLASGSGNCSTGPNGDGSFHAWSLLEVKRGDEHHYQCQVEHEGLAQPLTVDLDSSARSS
T8 chain 2: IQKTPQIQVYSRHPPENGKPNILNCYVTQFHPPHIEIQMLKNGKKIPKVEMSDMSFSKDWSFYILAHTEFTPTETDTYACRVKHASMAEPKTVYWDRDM

T9: cynomolgus FcRn (cynomolgus, UniProt Q8SPV9)
T9 chain 1: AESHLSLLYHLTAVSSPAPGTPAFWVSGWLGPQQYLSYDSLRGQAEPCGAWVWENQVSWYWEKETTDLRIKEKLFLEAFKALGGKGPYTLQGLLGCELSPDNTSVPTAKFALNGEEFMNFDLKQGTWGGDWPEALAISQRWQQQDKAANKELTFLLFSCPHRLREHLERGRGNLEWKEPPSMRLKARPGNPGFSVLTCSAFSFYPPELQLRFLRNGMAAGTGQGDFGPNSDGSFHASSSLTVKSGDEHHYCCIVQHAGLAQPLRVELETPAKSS
T9 chain 2: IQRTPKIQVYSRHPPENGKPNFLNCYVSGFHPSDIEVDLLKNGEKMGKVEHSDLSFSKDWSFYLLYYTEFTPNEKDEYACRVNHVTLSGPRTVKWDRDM

T10: murine FcγRIV (CD16-2) (mouse, UniProt A0A0B4J1G0)
T10 chain: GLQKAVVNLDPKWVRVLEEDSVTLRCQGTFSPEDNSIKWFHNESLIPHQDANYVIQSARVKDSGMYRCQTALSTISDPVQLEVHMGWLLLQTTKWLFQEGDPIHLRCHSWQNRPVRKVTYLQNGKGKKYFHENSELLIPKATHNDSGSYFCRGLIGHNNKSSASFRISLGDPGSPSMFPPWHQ

T11: human FcγRIIb (CD32B) (human, UniProt P31994)
T11 chain: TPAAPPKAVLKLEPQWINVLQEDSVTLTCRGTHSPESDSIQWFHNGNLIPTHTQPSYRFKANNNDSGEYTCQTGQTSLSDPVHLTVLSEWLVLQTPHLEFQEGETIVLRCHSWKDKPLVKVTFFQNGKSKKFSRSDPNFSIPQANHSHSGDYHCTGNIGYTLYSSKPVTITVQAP

T12: human FcγRIIIb (NA1) CD16B (human, UniProt O75015)
T12 chain: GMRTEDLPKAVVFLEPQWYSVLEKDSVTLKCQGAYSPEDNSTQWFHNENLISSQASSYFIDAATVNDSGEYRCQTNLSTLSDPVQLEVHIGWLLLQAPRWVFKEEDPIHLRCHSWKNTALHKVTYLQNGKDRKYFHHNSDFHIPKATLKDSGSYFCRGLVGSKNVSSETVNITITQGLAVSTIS

B1: scFv-IgAb_02 (full) (antibody)
chain 1: QVQLVQSGAEVKKPGESLKVSCKASGYTFTSYYMHWVRQAPGQGLEWMGIINPSGGSTSYAQKFQGRVTMTRDTSTSTVYMELSSLRSEDTAVYYCARGSAYYYDFADYWGQGTLVTVSSASTKGPSVFPLAPSSKSTSGGTAALGCLVKDYFPEPVTVSWNSGALTSGVHTFPAVLQSSGLYSLSSVVTVPSSSLGTQTYICNVNHKPSNTKVDKKVEPKSCDKTHTCPPCPAPEFEGGPSVFLFPPKPKDTLMISRTPEVTCVVVAVSHEDPEVKFNWYVDGVEVHNAKTKPREEQYNSTYRVVSVLTVLHQDWLNGKEYKCKVSNKALPAPIEKTISKAKGQPREPQVYTLPPSREEMTKNQVSLTCLVKGFYPSDIAVEWESNGQPENNYKTTPPVLDSDGSFFLYSKLTVDKSRWQQGNVFSCSVMHEALHNHYTQKSLSLSPGGGGGSGGGGSQVQLQESGPGLVKPSETLSLTCTVSGGSVSSGSYYWSWIRQPPGKGLEWIGYIYYSGSTNYNPSLKSRVTISVDTSKNQFSLKLSSVTAADTAVYYCARNPISIPAFDIWGQGTMVTVSSGGSGGSGGSGGSGGSGGSQPVLTQPPSVSVAPGKTARITCGGNNIGSKSVHWYQQKPGQAPVLVIYYDSDRPSGIPERFSGSNSGNTATLTISRVEAGDEADYYCQVWDTSSDHVLFGGGTKLTVL
chain 2: SYVLTQPSSVSVAPGQTATISCGGHNIGSKNVHWYQQRPGQSPVLVIYQDNKRPSGIPERFSGSNSGNTATLTISGTQAMDEADYYCQVWDNYSVLFGGGTKLTVLGQPKAAPSVTLFPPSSEELQANKATLVCLISDFYPGAVTVAWKADSSPVKAGVETTTPSKQSNNKYAASSYLSLTPEQWKSHRSYSCQVTHEGSTVEKTVAPTECS
B2: Bi-scFv-Fc_02 (full) (antibody)
chain 1: SYVLTQPSSVSVAPGQTATISCGGHNIGSKNVHWYQQRPGQSPVLVIYQDNKRPSGIPERFSGSNSGNTATLTISGTQAMDEADYYCQVWDNYSVLFGGGTKLTVLGGSGGSGGSGGSGGSGGSGGSQVQLVQSGAEVKKPGESLKVSCKASGYTFTSYYMHWVRQAPGQGLEWMGIINPSGGSTSYAQKFQGRVTMTRDTSTSTVYMELSSLRSEDTAVYYCARGSAYYYDFADYWGQGTLVTVSSEPKSCDKTHTCPPCPAPEFEGGPSVFLFPPKPKDTLMISRTPEVTCVVVAVSHEDPEVKFNWYVDGVEVHNAKTKPREEQYNSTYRVVSVLTVLHQDWLNGKEYKCKVSNKALPAPIEKTISKAKGQPREPQVYTLPPSREEMTKNQVSLTCLVKGFYPSDIAVEWESNGQPENNYKTTPPVLDSDGSFFLYSKLTVDKSRWQQGNVFSCSVMHEALHNHYTQKSLSLSPGGGGGSGGGGSQVQLQESGPGLVKPSETLSLTCTVSGGSVSSGSYYWSWIRQPPGKGLEWIGYIYYSGSTNYNPSLKSRVTISVDTSKNQFSLKLSSVTAADTAVYYCARNPISIPAFDIWGQGTMVTVSSGGSGGSGGSGGSGGSGGSQPVLTQPPSVSVAPGKTARITCGGNNIGSKSVHWYQQKPGQAPVLVIYYDSDRPSGIPERFSGSNSGNTATLTISRVEAGDEADYYCQVWDTSSDHVLFGGGTKLTVL
chain 2: B2 chain 1

What was measured:
human FcγRIIc (CD32C) = target: T1, human FcγRIIc (CD32C); experiment: SPR
murine FcγRI = target: T2, murine FcγRI; experiment: SPR
human FcγRI (CD64) = target: T3, human FcγRI (CD64); experiment: SPR
murine FcγRIII = target: T4, murine FcγRIII; experiment: SPR
[1] = target: T5, cynomolgus FcγRIIa (CD32A); experiment: SPR
human FcRn = human FcRn (human, UniProt P55899); experiment: SPR, pH 6.0
human FcγRIIa (CD32A) = target: T6, human FcγRIIa (CD32A); experiment: SPR
murine FcγRIIb = target: T7, murine FcγRIIb; experiment: SPR
murine FcRn = target: T8, murine FcRn; experiment: SPR, pH 6.0
cynomolgus FcRn = target: T9, cynomolgus FcRn; experiment: SPR, pH 6.0
murine FcγRIV (CD16-2) = target: T10, murine FcγRIV (CD16-2); experiment: SPR
human FcγRIIb (CD32B) = target: T11, human FcγRIIb (CD32B); experiment: SPR
[2] = target: T12, human FcγRIIIb (NA1) CD16B; experiment: SPR

Binder | binding result (human FcγRIIc (CD32C)) | binding result (murine FcγRI) | binding result (human FcγRI (CD64)) | binding result (murine FcγRIII) | binding result [1] | Kd (human FcRn) [nM] | binding result (human FcγRIIa (CD32A)) | binding result (murine FcγRIIb) | Kd (murine FcRn) [nM] | Kd (cynomolgus FcRn) [nM] | binding result (murine FcγRIV (CD16-2)) | binding result (human FcγRIIb (CD32B)) | binding result [2]
B1 | no binding | no binding | no binding | no binding | no binding | 430 | no binding | no binding | 180 | 842 | no binding | no binding | no binding
B2 | no binding | no binding | no binding | no binding | no binding | 410 | no binding | no binding | 121 | 268 | no binding | no binding | no binding
